Here are results for four molecules from patent US20200369765A1 (INNATE PHARMA, published 2020).

Changes are numbered by the printed parent chain.

The target in assay [1] is T1, Human Siglec-9 mutant M8 (human, UniProt Q9Y336 18-463).
T1 construct: Expressed on HEK293T cells; also called Mutant 8
Kind of assay: flow cytometry, HEK293T transfectants; '-' indicates full loss of binding. In general terms: In flow cytometry, cells or beads pass a laser one at a time.

A further assay deals with T2, Siglec-9 Fc protein (human).
T2 construct: Produced in CHO cells; also called human Siglec-9 Fc
T2 sequence (chain, as listed by the source limits assumed): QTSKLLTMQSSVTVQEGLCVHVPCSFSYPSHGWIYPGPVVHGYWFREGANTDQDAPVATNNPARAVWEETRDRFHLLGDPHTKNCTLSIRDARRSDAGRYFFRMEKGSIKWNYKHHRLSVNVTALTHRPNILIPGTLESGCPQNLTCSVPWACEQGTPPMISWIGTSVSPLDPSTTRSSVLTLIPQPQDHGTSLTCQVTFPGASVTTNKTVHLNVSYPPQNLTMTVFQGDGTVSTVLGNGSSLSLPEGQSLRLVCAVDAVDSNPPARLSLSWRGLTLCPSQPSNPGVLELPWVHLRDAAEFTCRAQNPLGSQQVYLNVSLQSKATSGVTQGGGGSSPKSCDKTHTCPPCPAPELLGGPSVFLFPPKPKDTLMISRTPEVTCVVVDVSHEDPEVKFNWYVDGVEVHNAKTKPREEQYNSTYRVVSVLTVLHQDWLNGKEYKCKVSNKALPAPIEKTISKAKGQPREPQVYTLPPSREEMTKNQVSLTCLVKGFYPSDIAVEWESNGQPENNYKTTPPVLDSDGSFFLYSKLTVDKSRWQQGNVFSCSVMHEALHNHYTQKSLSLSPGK
The assay is described as follows: SPR (Biacore T200), Fab over immobilized Siglec-9 Fc, 1:1 model. How it is done: SPR measurements were performed on a Biacore™ T200 apparatus (Biacore™ GE Healthcare) at 25° C. In all Biacore™ experiments HBS-EP+(Biacore™ GE Healthcare) and NaOH 10 mM served as running buffer and regeneration buffer respectively. Sensorgrams were analyzed with Biacore™ T200 Evaluation software. Human siglec-9 and -7 multimeric proteins were cloned, produced and purified at Innate Pharma.
Proteins were immobilized covalently to carboxyl groups in the dextran layer on a Sensor Chip CM5. The chip surface was activated with EDC/NHS (N-ethyl-N′-(3-dimethylaminopropyl) carbodiamide hydrochloride and N-hydroxysuccinimide (Biacore™ GE Healthcare). Proteins were diluted to 10 μg/ml in coupling buffer (10 mM acetate, pH 4.2 & 5.0) and injected until the appropriate immobilization level was reached (i.e., 600 to 2000RU). Deactivation of the remaining activated groups was performed using 100 mM ethanolamine pH 8 (Biacore™, GE Healthcare).
The affinity study was carried out according to a standard Kinetic protocol recommended by the manufacturer (Biacore™ GE Healthcare kinetic wizard). […] The entire sensorgram sets were fitted using the 1:1 kinetic binding model. Monovalent affinities and kinetic association and dissociation rate constants are shown below in Table 2 below.
Background: In SPR one partner is held on a chip, and binding of the other changes the refractive index at the surface.

For a further assay, the target named is T3, Human Siglec-9 mutant M7 (human, UniProt Q9Y336 18-463).
T3 construct: Expressed on HEK293T cells; also called Mutant 7
T3 sequence (Q9Y336 other isoform, or with tags, fused parts or gaps mutant): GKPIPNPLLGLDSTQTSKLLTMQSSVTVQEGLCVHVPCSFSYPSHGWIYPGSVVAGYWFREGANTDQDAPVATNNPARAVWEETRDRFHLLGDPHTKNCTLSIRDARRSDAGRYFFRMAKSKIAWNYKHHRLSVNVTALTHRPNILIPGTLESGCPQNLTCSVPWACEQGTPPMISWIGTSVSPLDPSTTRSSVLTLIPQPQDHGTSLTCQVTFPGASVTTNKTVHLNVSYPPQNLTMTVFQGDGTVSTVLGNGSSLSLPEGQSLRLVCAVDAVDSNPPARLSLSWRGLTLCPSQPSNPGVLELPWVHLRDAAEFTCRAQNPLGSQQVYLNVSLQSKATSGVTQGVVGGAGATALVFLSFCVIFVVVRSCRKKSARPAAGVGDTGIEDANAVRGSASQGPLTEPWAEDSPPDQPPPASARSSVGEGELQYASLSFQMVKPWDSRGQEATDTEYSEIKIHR
The assay is described as follows: flow cytometry, HEK293T transfectants.

For assay [2], the target named is T4, Human Siglec-9 mutant M11 (human, UniProt Q9Y336 18-463).
T4 construct: Expressed on HEK293T cells; also called Mutant 11
T4 sequence (Q9Y336 other isoform, or with tags, fused parts or gaps mutant): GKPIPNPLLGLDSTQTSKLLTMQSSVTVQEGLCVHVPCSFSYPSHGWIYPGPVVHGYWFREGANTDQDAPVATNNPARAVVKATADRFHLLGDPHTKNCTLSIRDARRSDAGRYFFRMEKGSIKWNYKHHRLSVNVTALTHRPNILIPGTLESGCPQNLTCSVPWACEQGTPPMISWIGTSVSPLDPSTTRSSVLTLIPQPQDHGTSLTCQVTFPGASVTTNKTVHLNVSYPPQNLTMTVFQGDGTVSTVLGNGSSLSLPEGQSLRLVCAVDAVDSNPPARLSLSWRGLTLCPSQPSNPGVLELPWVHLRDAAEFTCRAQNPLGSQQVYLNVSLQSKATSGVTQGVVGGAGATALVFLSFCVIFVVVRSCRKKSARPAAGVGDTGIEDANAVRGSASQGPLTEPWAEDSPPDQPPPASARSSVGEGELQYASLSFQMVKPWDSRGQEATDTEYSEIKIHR
Kind of assay: flow cytometry, HEK293T transfectants.

Assay [3] addresses T5, Human Siglec-9 mutant M14 (human, UniProt Q9Y336 18-463).
T5 construct: Expressed on HEK293T cells; also called Mutant 14
Kind of assay: flow cytometry, HEK293T transfectants.

For assay [4], the target named is T6, Human Siglec-9 mutant M15 (human, UniProt Q9Y336 18-463).
T6 construct: Expressed on HEK293T cells; also called Mutant 15
T6 sequence (Q9Y336 other isoform, or with tags, fused parts or gaps mutant): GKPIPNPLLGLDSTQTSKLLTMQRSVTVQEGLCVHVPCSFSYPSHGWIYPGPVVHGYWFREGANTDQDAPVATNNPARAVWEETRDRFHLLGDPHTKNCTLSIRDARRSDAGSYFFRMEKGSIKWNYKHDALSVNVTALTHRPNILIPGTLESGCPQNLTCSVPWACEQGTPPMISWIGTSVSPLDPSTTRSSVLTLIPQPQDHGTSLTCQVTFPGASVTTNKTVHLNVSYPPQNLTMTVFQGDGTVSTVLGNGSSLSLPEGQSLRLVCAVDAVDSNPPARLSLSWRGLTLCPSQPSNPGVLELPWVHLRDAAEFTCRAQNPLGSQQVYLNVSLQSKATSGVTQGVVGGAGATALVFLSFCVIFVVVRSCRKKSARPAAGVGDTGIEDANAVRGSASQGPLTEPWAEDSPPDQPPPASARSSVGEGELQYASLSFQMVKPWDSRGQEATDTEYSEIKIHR
The assay is described as follows: flow cytometry, HEK293T transfectants.

The target in assay [5] is T7, Human Siglec-9 mutant M16 (human, UniProt Q9Y336 18-463).
T7 construct: Expressed on HEK293T cells; also called Mutant 16
T7 sequence (Q9Y336 other isoform, or with tags, fused parts or gaps mutant): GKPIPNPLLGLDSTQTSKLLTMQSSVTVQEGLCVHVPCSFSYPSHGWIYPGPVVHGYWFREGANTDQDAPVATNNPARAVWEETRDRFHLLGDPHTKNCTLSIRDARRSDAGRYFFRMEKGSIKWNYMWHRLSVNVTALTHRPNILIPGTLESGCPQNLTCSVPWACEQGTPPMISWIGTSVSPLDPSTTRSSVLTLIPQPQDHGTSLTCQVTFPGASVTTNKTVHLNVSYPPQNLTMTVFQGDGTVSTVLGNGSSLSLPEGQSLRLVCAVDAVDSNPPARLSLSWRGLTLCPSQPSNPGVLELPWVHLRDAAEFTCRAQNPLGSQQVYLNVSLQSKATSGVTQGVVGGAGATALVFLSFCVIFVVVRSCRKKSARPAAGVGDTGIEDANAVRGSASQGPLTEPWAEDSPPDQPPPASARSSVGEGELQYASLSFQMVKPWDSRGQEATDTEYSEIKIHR
Kind of assay: flow cytometry, HEK293T transfectants; '-' indicates full loss of binding.

For assay [6], the target named is T1, Human Siglec-9 mutant M8. Kind of assay: flow cytometry, HEK293T transfectants.
The next assay addresses T8, Human Siglec-9 mutant M6 (human, UniProt Q9Y336 18-463).
T8 construct: Expressed on HEK293T cells; also called Mutant 6
The assay is described as follows: flow cytometry, HEK293T transfectants; '-' indicates full loss of binding.

T1 sequence (Q9Y336 other isoform, or with tags, fused parts or gaps mutant): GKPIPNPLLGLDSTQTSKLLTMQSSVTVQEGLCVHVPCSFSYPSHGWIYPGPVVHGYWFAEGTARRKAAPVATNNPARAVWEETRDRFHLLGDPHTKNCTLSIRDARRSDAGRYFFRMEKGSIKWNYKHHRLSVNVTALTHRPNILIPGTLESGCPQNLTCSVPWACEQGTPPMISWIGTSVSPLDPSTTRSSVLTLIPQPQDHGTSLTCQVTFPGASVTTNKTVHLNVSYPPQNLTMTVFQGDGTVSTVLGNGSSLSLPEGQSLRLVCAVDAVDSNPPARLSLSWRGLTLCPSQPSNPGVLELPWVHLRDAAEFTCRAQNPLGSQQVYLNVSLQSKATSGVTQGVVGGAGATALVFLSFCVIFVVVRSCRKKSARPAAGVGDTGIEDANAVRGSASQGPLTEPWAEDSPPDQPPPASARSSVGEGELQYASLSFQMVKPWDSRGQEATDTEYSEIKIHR
T5 sequence (Q9Y336 other isoform, or with tags, fused parts or gaps mutant): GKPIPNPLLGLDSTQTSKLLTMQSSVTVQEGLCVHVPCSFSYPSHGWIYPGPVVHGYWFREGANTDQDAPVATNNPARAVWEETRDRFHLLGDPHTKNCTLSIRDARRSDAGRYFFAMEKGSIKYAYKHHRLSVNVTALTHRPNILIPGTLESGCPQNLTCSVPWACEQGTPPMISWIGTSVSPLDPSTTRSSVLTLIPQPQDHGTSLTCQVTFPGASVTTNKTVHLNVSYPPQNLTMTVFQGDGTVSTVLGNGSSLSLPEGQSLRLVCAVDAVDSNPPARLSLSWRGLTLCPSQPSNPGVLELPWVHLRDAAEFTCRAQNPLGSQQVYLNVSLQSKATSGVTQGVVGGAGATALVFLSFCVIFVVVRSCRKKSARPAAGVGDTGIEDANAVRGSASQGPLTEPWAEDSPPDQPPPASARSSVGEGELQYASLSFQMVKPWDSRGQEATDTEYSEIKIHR
T8 sequence (Q9Y336 other isoform, or with tags, fused parts or gaps mutant): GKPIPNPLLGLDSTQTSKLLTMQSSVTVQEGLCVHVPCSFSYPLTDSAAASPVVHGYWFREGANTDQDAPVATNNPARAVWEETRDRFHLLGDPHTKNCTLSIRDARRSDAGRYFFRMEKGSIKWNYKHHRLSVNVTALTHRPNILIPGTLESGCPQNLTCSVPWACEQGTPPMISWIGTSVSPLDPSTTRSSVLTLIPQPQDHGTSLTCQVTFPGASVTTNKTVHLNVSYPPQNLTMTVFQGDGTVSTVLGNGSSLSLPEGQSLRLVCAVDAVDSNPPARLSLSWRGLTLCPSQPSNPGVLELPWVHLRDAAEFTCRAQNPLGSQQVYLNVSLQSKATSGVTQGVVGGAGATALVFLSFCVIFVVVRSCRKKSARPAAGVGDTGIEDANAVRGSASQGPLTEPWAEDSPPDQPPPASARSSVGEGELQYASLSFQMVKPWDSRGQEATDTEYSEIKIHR

B1: Fab.C (Fab of mAbC) (Fab, V domains shown)
VH: QIQLVQSGPELKKPGETVKISCKASGYTFTNYEMNWVKEAPGKGLKWMGWINTYTGESTYADDFKGRFAFSLETSASTVYLQINNLKDEDVATYFCVRDDYGRSYGFAYWGQGTLVTVSA
VL: NIVLTQSPASLTVSLGQRANISCRASESVDSYGNSFMHWYQQKPGQPPKLLIYLASKLESGVPARFSGSGSRTDFTLTIDPVETDDAATYYCHQNNEDPPWTFGGGTKLEIK
A word on the Kd: it is the constant that tells how readily two partners part at equilibrium. A lower Kd goes with a tighter complex. A word on the koff: it is a measure of how fast the partners let go of each other. Higher therefore signals fast dissociation. On to B1, for which the binding result in the assay with Human Siglec-9 mutant M8 [1] was “no binding”; with Human Siglec-9 mutant M7, “binds”; in assay [2], “binds”; in [3], “binds”; in [4], “binds”. The molecule also registered a Kd with Siglec-9 Fc protein of 0.55 nM. Besides, the koff with Siglec-9 Fc protein was found to be 0.00043 s⁻¹.

B2: Fab.A (Fab of mAbA) (Fab, V domains shown)
VH: QVQLQQPGAELVKPGSPVKLSCKASYFTFTSYWMHWVRQRPGQGLEWIGEINPSNGHTNYNEKFESKATLTVDRSSSTAYMQLSSLTSEDSAVFYCANGVESYDFDDALDYWGQGTSVTVSS
VL: DIQMTQTTSSLSASLGDRVTISCRASQDINNYLNWYQQKPDGTIKLLIYYTSRLHSGVPSRFSGSGSGTDYSLTINNLEQEDIATYFCQQGNTLPFTFGGGTKLEIK
On to B2, for which the binding result in assay [5] is “no binding”; in the assay with Human Siglec-9 mutant M8 [6], “binds”; in the assay with Human Siglec-9 mutant M7, “binds”; in [4], “binds”. Also, the equilibrium dissociation constant (Kd) with Siglec-9 Fc protein is 0.04 nM. In the assay with Siglec-9 Fc protein, this molecule registered a koff of 2.5e-05 s⁻¹.

B3: Fab.B (Fab of mAbB) (Fab, V domains shown)
VH: QVQLQQPGAELVKPGASVKLSCKASVYTFTSYWMHWVKQRPGQGLEWIGEINPSNGHTNYNEKFKTKAKLTVDKSSSTAYMQLSSLTSEDSAVYFCANGVETYDFDDAMDYWGQGTSVTVSS
VL: B2 VL with I44V, Y50F, N76S, N92D, L94F
On to B3, for which the binding result in assay [5] was “no binding”; with Human Siglec-9 mutant M8 [6], “binds”; with Human Siglec-9 mutant M7 it was “binds”; in assay [4] it was “binds”. For the same molecule, in the assay with Siglec-9 Fc protein, the affinity, expressed as Kd, was 0.37 nM. The koff in the assay with Siglec-9 Fc protein was determined as 0.00031 s⁻¹.

B4: Fab.D (Fab of mAbD) (Fab, V domains shown)
VH: QIQLVQSGPELKKPGETVKISCKASGYTFTDYSMHWVKQAPGKGLKWMGWIITETGEPTYADDFRGRFAFSLETSANTAYLQINNLKNEDTATYFCARDFDGYWGQGTTLTVSS
VL: DILMTQSPASLSASVGETVTITCRASENIYSYLAWYQQKRGKSPQFLVYNAKTLTEGVPSRFRGSGSGTQFSLKINSLQPEDFGTYYCQHHYGFPWTFGGGTKLEIK
In the case of B4, the binding result was “no binding” with Human Siglec-9 mutant M6; “binds” with Human Siglec-9 mutant M8 [6]; “binds” in [2]; “binds” in assay [3]; “binds” in [4]. Moreover, the Kd in the assay with Siglec-9 Fc protein came to 4.12 nM. In the assay with Siglec-9 Fc protein, the koff was determined as 0.00011 s⁻¹.
